Laboratory results: patent US20240247077A1 (CLEMSON UNIVERSITY RESEARCH FOUNDATION, published 2024)

What was measured:
mouse CYP1A = biological target: T1, mouse CYP1A (mouse (M. musculus), UniProt P00184 1-524); assay: IHC, liver of PCB-126 treated mouse
T1 construct: Endogenous protein in Hepa1c1c7 cell lysate (immunoblot) and fixed liver (IHC); also called HEPA1C1C7; mouse hepatoma cell line CYP1A
T1 sequence (looked up): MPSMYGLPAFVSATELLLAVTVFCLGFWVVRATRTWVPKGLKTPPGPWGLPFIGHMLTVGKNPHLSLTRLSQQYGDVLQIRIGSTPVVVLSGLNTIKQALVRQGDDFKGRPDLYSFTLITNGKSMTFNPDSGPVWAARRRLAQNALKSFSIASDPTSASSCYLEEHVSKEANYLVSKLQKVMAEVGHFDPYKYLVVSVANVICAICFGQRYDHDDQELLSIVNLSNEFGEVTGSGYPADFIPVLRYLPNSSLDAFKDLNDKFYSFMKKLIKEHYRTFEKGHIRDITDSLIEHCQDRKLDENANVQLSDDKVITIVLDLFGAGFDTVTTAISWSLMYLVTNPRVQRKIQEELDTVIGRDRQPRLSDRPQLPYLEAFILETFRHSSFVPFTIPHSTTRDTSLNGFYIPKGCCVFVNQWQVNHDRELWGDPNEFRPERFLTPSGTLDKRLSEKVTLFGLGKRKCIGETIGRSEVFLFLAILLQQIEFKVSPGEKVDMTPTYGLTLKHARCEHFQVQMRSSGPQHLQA
Experimental: Subsequently, slides were immersed in pH 9 Tris-EDTA buffer while heating by microwave on 100% power for 5 min followed by cooling for 5 min, followed by a final 5 min 100% power, then a final 20 min cool-down period in the container at room temperature. After antigen retrieval, tissues on slides were encircled with a Liquid Blocker Super mini pen to isolate tissue slices. Thus, each slide was divided into sections where one section can act as a reagent control by withholding a primary antibody. Additional screening assays included isotype controls. Once slides were divided, all sections were treated to quench endogenous peroxidase activity for 30 min using 3% H₂O₂ in water. […] After blocking, avidin-then biotin-blocking steps (15 min each) were conducted to allow specificity to target molecules only for the avidin-biotin binding. Next, the antibody, as a hybridoma supernatant diluted 1:10 in PBS with 0.5% FBS, was added dropwise to the slides and incubated overnight at 4° C. or for 2 h at RT. After incubation, the slides were washed prior to addition of the secondary (biotinylated) antibody for a 30 min incubation at RT. After washing, Vectastain ABC reagent was added for 30 min prior to staining.

rat CYP1A = biological target: T2, rat CYP1A (rat (R. norvegicus), UniProt P00185 2-524); assay: immunoblot, rat liver S9 fractions
T2 construct: Endogenous protein in liver S9 fraction, immunoblot; also called Rat liver S9 fraction, Arochlor-1254-induced
T2 sequence (looked up): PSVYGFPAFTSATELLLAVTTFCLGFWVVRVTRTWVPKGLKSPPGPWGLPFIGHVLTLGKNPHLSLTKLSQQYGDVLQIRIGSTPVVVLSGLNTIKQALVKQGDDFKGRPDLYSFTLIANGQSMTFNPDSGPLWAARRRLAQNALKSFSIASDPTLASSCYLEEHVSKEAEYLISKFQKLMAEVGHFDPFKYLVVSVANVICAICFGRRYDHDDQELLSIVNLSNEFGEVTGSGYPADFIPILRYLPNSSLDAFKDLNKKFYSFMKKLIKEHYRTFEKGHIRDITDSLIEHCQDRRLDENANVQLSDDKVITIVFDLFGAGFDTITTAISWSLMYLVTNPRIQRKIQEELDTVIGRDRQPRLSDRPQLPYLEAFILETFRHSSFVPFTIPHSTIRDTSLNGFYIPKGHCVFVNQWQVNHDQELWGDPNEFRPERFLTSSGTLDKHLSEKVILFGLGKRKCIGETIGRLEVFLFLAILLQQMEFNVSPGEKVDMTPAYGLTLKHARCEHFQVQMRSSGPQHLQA
Experimental: Lysate protein concentration for each cell line, rat S9 fractions, and rainbow trout microsomes were matched between treated and controls, then boiled in reducing sample buffer for 7 min. Forty micrograms of each sample was then subjected to SDS-PAGE using 10-lane, 50 μL well capacity 4-20% pre-cast gels (Biorad, Richmond, CA, USA) and immunoblotting using standard procedures incorporating PDVF membranes. Immunoblots were blocked overnight with 10% horse serum (Gibco) in 0.01 M phosphate buffered saline (PBS) containing 0.05% tween twenty (PBS-T). Membranes were washed once for 10 min with PBS-T, then probed for 2 h at room temperature (RT) with mAbs as confluent supernatants diluted 1:10 in PBS-T containing a final nominal concentration of 3 ug/mL antibody. […] After 3×washes with PBS-T, membranes were incubated with NBT-BCIP (Fisher Scientific, Pittsburgh, PA, USA) as the AP substrate and activity was visualized as dark blue banding of CYP1A at the expected size of approximately 55 kDa.

[1] = biological target: T3, recombinant human CYP1A1 expressed in HEK cells (human (H. sapiens), UniProt P04798 1-512); assay: immunoblot, HEK cell lysate with recombinant human CYP1A1
T3 construct: Bought over-expression lysate; also called OriGene LC400170
T3 sequence (looked up): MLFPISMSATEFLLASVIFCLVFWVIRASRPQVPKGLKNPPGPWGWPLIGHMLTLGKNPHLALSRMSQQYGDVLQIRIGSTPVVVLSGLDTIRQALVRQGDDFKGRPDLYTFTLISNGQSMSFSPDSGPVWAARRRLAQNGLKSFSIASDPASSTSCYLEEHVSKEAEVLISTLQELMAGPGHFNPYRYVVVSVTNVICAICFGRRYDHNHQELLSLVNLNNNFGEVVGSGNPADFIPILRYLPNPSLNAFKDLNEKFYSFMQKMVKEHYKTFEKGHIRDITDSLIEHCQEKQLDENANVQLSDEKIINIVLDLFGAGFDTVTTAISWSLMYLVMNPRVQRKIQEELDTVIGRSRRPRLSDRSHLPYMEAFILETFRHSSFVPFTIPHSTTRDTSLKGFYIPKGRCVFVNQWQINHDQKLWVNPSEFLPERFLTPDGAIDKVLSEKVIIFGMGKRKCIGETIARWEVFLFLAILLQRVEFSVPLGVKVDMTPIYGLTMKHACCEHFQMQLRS
Experimental: HEK cells were grown in media only as a cell-specific source of control cell lysate for comparison with over-expressed recombinant CYP1A1 in HEK cell lysates from the supplier.
Media was then removed from cells, replaced with 0.25% trypsin, and incubated until cells lifted from attachment. Cells were then pelleted by centrifugation to obtain a dry pellet, covered with ice-cold 300-400 μL RIPA buffer (Thermo Fisher, Waltham, MA, USA) supplemented with 2×HALT protease inhibitor cocktail (Pierce), followed by resuspension using a vortex device and placement on ice for 20 min. Suspensions were then sonicated, transferred to 1.5 mL tubes, and centrifuged 12,000×g for 20 min. Overlying supernatants were removed and transferred to clean tubes and the protein content quantified. Lysate protein concentration for each cell line, rat S9 fractions, and rainbow trout microsomes were matched between treated and controls, then boiled in reducing sample buffer for 7 min. Forty micrograms of each sample was then subjected to SDS-PAGE using 10-lane, 50 μL well capacity 4-20% pre-cast gels (Biorad, Richmond, CA, USA) and immunoblotting using standard procedures incorporating PDVF membranes. Immunoblots were blocked overnight with 10% horse serum (Gibco) in 0.01 M phosphate buffered saline (PBS) containing 0.05% tween twenty (PBS-T). […]

Measured: binding result

B1: mAb CRC4 (antibody, mouse IgG1, kappa, V domains shown)
VH: QVTLKESGPGILQPSQTLSLTCSFSGFSLSTSGMGVNWIRKPSGKGLEWLAHIFWDDDKRYNPSLKSRLTISKDTSRNQVFLMITSVDTADTATYYCASLAMDYWGQGTSVTVSS
VL: DIVMTQGASSVTVTPGESVSISCRSSKSLLHSNGRTFLYWFLQRPGQSPQLLIYRMSNLASGVPDRVSGSGSGTAFTLRISRVEAEDVGVYYCMQHLEYPFTFGGGTRLELKR
notes: Mouse IgG1 kappa from a hybridoma, used as confluent hybridoma supernatant (nominally 3 ug/mL after 1:10 dilution); also called monoclonal antibody CRC4; CRC4_1
binds: all assays above
